# Data from patent publication US20060282909A1 (published 2006).
# T1: NF-AT3 full length (NFATC4) (UniProt Q14934)
# T1 sequence: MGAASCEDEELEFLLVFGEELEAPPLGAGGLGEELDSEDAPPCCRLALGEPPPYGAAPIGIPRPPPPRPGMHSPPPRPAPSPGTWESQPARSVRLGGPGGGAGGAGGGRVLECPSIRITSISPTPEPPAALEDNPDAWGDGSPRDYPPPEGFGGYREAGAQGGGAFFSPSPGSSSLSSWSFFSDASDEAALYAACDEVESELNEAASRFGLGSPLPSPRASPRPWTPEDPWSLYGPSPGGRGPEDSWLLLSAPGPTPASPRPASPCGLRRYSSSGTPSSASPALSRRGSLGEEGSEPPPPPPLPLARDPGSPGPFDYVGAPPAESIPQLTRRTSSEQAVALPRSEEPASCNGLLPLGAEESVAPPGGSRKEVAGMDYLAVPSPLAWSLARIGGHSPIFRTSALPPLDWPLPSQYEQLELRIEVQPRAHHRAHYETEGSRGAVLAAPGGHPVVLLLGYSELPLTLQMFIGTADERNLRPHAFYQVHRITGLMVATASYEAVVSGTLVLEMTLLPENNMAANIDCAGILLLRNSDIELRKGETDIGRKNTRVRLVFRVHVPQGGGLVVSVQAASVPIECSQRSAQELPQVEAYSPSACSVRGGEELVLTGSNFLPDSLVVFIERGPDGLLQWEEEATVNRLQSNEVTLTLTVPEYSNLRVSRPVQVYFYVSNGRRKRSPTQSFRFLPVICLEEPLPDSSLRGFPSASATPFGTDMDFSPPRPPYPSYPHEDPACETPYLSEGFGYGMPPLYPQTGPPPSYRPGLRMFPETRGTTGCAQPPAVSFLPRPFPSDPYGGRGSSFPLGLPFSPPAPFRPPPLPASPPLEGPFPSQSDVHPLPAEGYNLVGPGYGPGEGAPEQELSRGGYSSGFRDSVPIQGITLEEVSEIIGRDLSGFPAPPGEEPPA
# How the values were obtained:
# [1] = molecular target: T1, NF-AT3 full length (NFATC4); assay: cell_activity; settings: CAT reporter activation with GATA4, NF-AT3 and activated calcineurin together in rat cardiomyocytes
# full-length GATA4 = full-length GATA4 (UniProt Q08369 1-441, limits assumed); assay: cell-based or functional assay
# Chain of full-length GATA4 (Q08369 whole entry): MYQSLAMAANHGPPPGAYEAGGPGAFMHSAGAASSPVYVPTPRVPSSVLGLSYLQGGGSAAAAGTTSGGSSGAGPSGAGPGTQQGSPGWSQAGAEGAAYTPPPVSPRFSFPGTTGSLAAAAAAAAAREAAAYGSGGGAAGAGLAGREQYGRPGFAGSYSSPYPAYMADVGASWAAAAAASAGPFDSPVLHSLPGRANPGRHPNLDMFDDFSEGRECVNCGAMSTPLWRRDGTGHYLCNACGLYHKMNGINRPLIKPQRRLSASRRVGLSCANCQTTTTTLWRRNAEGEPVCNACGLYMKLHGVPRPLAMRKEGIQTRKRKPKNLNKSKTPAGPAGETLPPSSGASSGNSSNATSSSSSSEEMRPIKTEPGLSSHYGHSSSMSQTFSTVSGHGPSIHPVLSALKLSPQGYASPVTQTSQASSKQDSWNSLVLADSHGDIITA
Molecule,activity [1] [fold],activation of the BNP promoter (CAT reporter) in transfected neonatal rat cardiomyocytes (full-length GATA4) [fold]
BNP promoter 1800 bp,> 100,–
full length NF-AT3 (other) MGAASCEDEELEFLLVFGEELEAPPLGAGGLGEELDSEDAPPCCRLALGEPPPYGAAPIGIPRPPPPRPGMHSPPPRPAPSPGTWESQPARSVRLGGPGGGAGGAGGGRVLECPSIRITSISPTPEPPAALEDNPDAWGDGSPRDYPPPEGFGGYREAGAQGGGAFFSPSPGSSSLSSWSFFSDASDEAALYAACDEVESELNEAASRFGLGSPLPSPRASPRPWTPEDPWSLYGPSPGGRGPEDSWLLLSAPGPTPASPRPASPCGLRRYSSSGTPSSASPALSRRGSLGEEGSEPPPPPPLPLARDPGSPGPFDYVGAPPAESIPQLTRRTSSEQAVALPRSEEPASCNGLLPLGAEESVAPPGGSRKEVAGMDYLAVPSPLAWSLARIGGHSPIFRTSALPPLDWPLPSQYEQLELRIEVQPRAHHRAHYETEGSRGAVLAAPGGHPVVLLLGYSELPLTLQMFIGTADERNLRPHAFYQVHRITGLMVATASYEAVVSGTLVLEMTLLPENNMAANIDCAGILLLRNSDIELRKGETDIGRKNTRVRLVFRVHVPQGGGLVVSVQAASVPIECSQRSAQELPQVEAYSPSACSVRGGEELVLTGSNFLPDSLVVFIERGPDGLLQWEEEATVNRLQSNEVTLTLTVPEYSNLRVSRPVQVYFYVSNGRRKRSPTQSFRFLPVICLEEPLPDSSLRGFPSASATPFGTDMDFSPPRPPYPSYPHEDPACETPYLSEGFGYGMPPLYPQTGPPPSYRPGLRMFPETRGTTGCAQPPAVSFLPRPFPSDPYGGRGSSFPLGLPFSPPAPFRPPPLPASPPLEGPFPSQSDVHPLPAEGYNLVGPGYGPGEGAPEQELSRGGYSSGFRDSVPIQGITLEEVSEIIGRDLSGFPAPPGEEPPA,–,> 100
